According to publication PMC8069351, “Characterization of Two Unique Cold-Active Lipases Derived from a Novel Deep-Sea Cold Seep Bacterium” (Microorganisms, 2021):

Substrate: CCCCCCCCCCCCCCCC(=O)Oc1ccc([N+](=O)[O-])cc1
Experiment: purified protein
Format: biochemical, Pseudomonas sp. gcc21
Details: 50 mM Tris-HCl pH 8.0, 4 °C, substrate 0.2-1.2 mM, text b44 swaps the two lipases' Km

B1: Lipase 2 (Pseudomonas sp. gcc21) (protein)
chain: MNSPLLKLSTLTLGLVFAAGAYAFNPGNPGGPSNPGGDQPVESGFPSVGNFEASGSFATTNASEGPSCTIYRPRTLGENDLKHPIILWGNGTGTSPSGYSALLNHWASHGFVVAAANTTNAGSGAEMLACLDYLAEQNGRGSGTYAGKLNLDAVGSSGHSQGGGGSIMAGQDSRITATAPFQPYTLGLGHRRASQSNQNGPMFLMTGSADTLASSEANGRPVFNNANVPVFWGELQGASHFVPAFNGGGYRGPSTAWYRYHLMGDQNAESTFYGADCKLCTSSEWKVQKKGIQ
In the case of B1, the Km is reported as 20 µM, the kcat is reported as 2.7 s⁻¹ and the kcat/Km is reported as 140000 M⁻¹ s⁻¹.
